Test results taken from patent US20240287172A1 (SCIRHOM, published 2024).

Experiments:
hiR2-FL-L539A-T7 = target: T1, hiR2-FL-L539A-T7 (human, UniProt Q6PJF5 1-856); experiment: FACS on MEF-DKO cells expressing the variant, 3 µg/ml antibody
T1 construct: on MEF-DKO cells
T1 sequence: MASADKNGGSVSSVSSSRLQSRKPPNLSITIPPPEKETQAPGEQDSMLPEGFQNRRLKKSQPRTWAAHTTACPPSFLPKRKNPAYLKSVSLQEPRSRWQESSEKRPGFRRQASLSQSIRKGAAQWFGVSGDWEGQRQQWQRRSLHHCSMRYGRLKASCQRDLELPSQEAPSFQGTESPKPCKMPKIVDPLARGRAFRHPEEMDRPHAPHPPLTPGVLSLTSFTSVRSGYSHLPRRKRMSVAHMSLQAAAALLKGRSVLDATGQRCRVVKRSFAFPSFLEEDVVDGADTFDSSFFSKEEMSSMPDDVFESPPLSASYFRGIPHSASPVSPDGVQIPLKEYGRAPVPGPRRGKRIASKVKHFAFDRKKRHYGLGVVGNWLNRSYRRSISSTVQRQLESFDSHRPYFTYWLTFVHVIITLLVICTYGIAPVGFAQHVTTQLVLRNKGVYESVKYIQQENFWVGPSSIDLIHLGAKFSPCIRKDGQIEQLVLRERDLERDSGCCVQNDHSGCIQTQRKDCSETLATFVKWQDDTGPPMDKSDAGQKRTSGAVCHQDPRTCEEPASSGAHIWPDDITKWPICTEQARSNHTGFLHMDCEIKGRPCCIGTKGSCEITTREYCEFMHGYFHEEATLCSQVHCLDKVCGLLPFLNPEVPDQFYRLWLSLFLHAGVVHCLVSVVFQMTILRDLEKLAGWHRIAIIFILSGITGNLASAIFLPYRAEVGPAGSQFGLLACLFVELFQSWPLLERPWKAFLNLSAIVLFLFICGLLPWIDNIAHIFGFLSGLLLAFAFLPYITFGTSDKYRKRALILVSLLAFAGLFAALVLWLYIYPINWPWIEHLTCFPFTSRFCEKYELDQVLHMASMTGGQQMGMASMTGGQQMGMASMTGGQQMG
Procedure: (§1) To pellet cells and remove supernatants, the plates were centrifuged at 1,500 rpm and 4° C. for 3 minutes. For primary staining, cells were resuspended in 100 μl per well of either FACS buffer alone (controls) or the purified antibodies 3, 5, 16, 22, 34, 42, 43, 44, 48, and 50 of the invention at 3 μg/ml in FACS buffer and incubated on ice for 1 hour. Afterwards, plates were centrifuged at 1,500 rpm and 4° C. for 3 minutes and washed twice with 200 μl per well of FACS buffer. For secondary staining, cells were spun down and resuspended in 100 μl per well of PE-conjugated goat anti-mouse IgG F(ab′)2 detection fragment (Dianova, Germany) diluted 1:100 in FACS buffer. Protected from light, the cell suspensions were incubated on ice for 1 hour. Plates were then centrifuged at 1,500 rpm and 4° C. for 3 minutes and washed three times with 200 μl per well of FACS buffer. Finally, cells were resuspended in 150 μl per well of FACS buffer and analyzed using a BD Accuri™ C6 Plus flow cytometer (Becton Dickinson, Germany).

hiR2-FL-S561A-T7 = target: T2, hiR2-FL-S561A-T7 (human, UniProt Q6PJF5 1-856); experiment: as above
T2 sequence: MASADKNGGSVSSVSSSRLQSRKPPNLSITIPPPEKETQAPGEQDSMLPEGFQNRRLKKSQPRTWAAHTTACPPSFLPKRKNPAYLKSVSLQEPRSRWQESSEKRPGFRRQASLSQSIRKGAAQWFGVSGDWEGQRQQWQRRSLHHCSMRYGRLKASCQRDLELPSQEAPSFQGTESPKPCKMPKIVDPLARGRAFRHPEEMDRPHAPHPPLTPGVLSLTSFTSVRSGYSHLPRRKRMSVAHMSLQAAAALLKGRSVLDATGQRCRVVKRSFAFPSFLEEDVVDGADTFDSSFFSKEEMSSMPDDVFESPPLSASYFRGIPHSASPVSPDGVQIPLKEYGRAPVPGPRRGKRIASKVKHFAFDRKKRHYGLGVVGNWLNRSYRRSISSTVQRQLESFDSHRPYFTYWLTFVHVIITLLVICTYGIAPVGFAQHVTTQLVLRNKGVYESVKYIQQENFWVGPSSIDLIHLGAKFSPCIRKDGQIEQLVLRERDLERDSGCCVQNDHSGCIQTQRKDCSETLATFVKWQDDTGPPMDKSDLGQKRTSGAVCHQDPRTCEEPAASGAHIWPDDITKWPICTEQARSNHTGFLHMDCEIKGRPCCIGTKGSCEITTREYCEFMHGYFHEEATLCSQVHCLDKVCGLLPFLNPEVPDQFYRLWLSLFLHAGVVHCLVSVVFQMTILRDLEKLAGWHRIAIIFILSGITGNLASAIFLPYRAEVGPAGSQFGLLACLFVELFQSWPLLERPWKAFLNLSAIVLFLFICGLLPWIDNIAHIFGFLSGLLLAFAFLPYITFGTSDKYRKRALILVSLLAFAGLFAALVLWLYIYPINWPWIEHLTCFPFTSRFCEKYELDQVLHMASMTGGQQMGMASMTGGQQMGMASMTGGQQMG
Procedure: as §1

B1: antibody 34 (antibody, V domains shown)
VH: QVTLKESGPGILQPSQTLSLTCSFSGFSLSTFSLGVGWIRQSSGKGLEWLAHIWWDDEKYYNPALKSRLTISKDTSKNQVFLKIANVDAADTATYYCARAYYSKSYYALDYWGQGTSVTVSS
VL: DIQMTQSPSSLSASLGERVSLTCRASQEISGYLSWLQQKPDGTIKRLIYAASTLDSGVPKRFSGSRSGSDYSLAISSLESEDFADYYCLQYANFPFTFGSGTKLEIK
notes: mouse IgG, kappa light chain; also called clone #34; purified antibody 34
For B1, the “loss of binding vs wild type” value (hiR2-FL-L539A-T7) was no less than 60% and the “loss of binding vs wild type” value (hiR2-FL-S561A-T7) was no less than 30%.

B2: antibody 5 (antibody, V domains shown)
VH: QVTLKESGPGILQPSQTLSLTCSFSGFSLSTFGMGVGWIRQPSGKGLEWLAHIWWDDEKYYNSALKSRLTISKATSKNQAFLKIANVDTADTATYYCARISNYGSNYWYFNVWGTGTTVTVSS
VL: QVVLTQSPALMSASPGEKVTMTCSAGSSVSCMYWYQQKPGSSPRVLIYDTSNLASGVPARFTGSGSGTSYSLTISRMEAEDAASYYCQQWNSYPLTFGAGTKLELK
notes: mouse IgG, kappa light chain; also called clone #5; purified antibody 5
In the case of B2, the “loss of binding vs wild type” value (hiR2-FL-L539A-T7) is reported as no less than 60% and the “loss of binding vs wild type” value (hiR2-FL-S561A-T7) is reported as no less than 30%.

B3: antibody 43 (antibody, V domains shown)
VH: QVALKESGPGILQPSQTLSLTCSFSGFSLSTFGMGVGWIRQSSGKGLEWLANIWWDDDKYYNPALKSRLTISKDASKNQAFLKIANVDTADTATYYCARIGNYGSNYWYFDVWGTGTTVTVSS
VL: QIVLTQSPAIMSASPGERVTMTCSANSRISYMYWYQQKPGSSPRLLIYDTSNLASGVPVRFSGSGSGTSYSLTISRMEAEDAATYNCQQWSSYPLTFGAGTKLELK
notes: mouse IgG, kappa light chain; also called clone #43; purified antibody 43
For B3, the “loss of binding vs wild type” value (hiR2-FL-L539A-T7) was no less than 95% and the “loss of binding vs wild type” value (hiR2-FL-S561A-T7) was no less than 30%.

B4: antibody 44 (antibody, V domains shown)
VH: QVTLKESGPGILQPSQTLSLTCSFSGFSLSTFGMGVGWIRQPSEKGLEWLAHIWWDDDKYYNPALKSRLTISKDTSKNQIFLKITNVDTAETATYYCSRIGNYGSNYWYFDVWGTGTTVTVSS
VL: QIVLTQSPAVMSASPGEKVTMTCTASSSVYYMYWYQQTPGSSPRLLIYDTSNLASGVPVRFSGSGSGTSYSLTISRMEAEDAATYYCQQWNTYPLTFGAGTKLELK
notes: mouse IgG, kappa light chain; also called clone #44; purified antibody 44
With B4 the “loss of binding vs wild type” value (hiR2-FL-L539A-T7) was no less than 60% and the “loss of binding vs wild type” value (hiR2-FL-S561A-T7) was no less than 30%.

B5: antibody 42 (antibody, V domains shown)
VH: QVTLKESGPGILQPSQTLSLTCSLSGFSLSTFGRGVGWIRQPSGKGLEWLAHIWWDDEKYYNPALKSRLTISKDTSKNQVFLRIANVDTADTATYYCARIQNYGSNYWYFDVWGTGTTVTVSS
VL: LIVLTQSPAIMSASPGEKVTMTCGATSRISYMFWYQQKPGSSPRVLIYDTSNLASGVPVRFSGSGSGTSYSLTISRVEAEDVATYYCQQWNSYPLTFGAGTKLELK
notes: mouse IgG, kappa light chain; also called clone #42; purified antibody 42
In the case of B5, the “loss of binding vs wild type” value (hiR2-FL-L539A-T7) is reported as no less than 60% and the “loss of binding vs wild type” value (hiR2-FL-S561A-T7) is reported as no less than 30%.

B6: antibody 22 (antibody, V domains shown)
VH: QVTLKESGPGILQPSQTLSLTCSFSGFSLSTFGMGVGWIRQPSGKGLEWLAHIWWDDEKYYNSALKSRLTISKATSKNQVFLKIANVDTADTATYYCARISNYGSNYWYFNVWGTGTTVTVSS
VL: QVVLTQSPALMSASPGEKVTMTCSAGSSVSYMYWYQQKPGSSPRVLIYDTSNLASGVPARFTGSGSGTSYSLTISRMEAEDAATYYCQQWNSYPLTFGAGTKLELK
notes: mouse IgG, kappa light chain; also called clone #22; purified antibody 22
B6 was tested, and the “loss of binding vs wild type” value (hiR2-FL-L539A-T7) was no less than 95% and the “loss of binding vs wild type” value (hiR2-FL-S561A-T7) was no less than 30%.

B7: antibody 50 (antibody, V domains shown)
VH: QVQLQQSGAELVRPGASVKVSCKASGYAFSNYLIEWVKQRPGQGLEWIGVINPGSGFTKYNEKFKGKATLTADKSSSTAYMQLSSLTSEDSAVYFCARGLYRAMDYWGQGTSVTVSS
VL: DIQMTQSPASQSASLGESVTITCLASQTIGTWLAWYQQKPGKSPQLLIYAAASLADGVPSRFSGGGSGTKFSFKISSLQAEDFVNYYCQQIYSTPYTFGGGTKLEIK
notes: mouse IgG, kappa light chain; also called clone #50; purified antibody 50
With B7 the “loss of binding vs wild type” value (hiR2-FL-L539A-T7) was no less than 30%.

B8: antibody 3 (antibody, V domains shown)
VH: QVTLKESGPGILQPSQTLSLTCSFSGFSLTTFAMGIGWVRQPSGKGLEWLAHIWWDGEKYNNPVLKSRLTISKDTSKNQVFLRIANVDTPDTATYYCARISSIYYIIDNWGQGTSVTVSS
VL: DIVLTQSPATLSVTPGHSVSLSCRASQSISNNLHWYQKKSHESPRLLIKYVSQSISGIPSRFSGSGSGTDFTLSINSVETEDFGMYFCQQSYNWPLTFGAGTKLELK
notes: mouse IgG, kappa light chain; also called clone #3; purified antibody 3
With B8 the “loss of binding vs wild type” value (hiR2-FL-L539A-T7) was no less than 30% and the “loss of binding vs wild type” value (hiR2-FL-S561A-T7) was no less than 30%.
